Measured values: the MegaScale stability set (Tsuboyama et al. 2023)

B1: 6NMW (parent)
chain: QGDIVVALYPYDGIHPDDLSFKKGEKMKVLEEHGEWWKAKSLLTKKEGFIPSNYVAKLN

Variants of: B1
Test: folding stability dG (cDNA display proteolysis); higher = more stable
Conditions: PBS, room temperature

In order of rising “folding stability dG” value:
1. L42P  -0.897 kcal/mol
2. S41F  -0.464 kcal/mol
3. T44I  -0.332 kcal/mol
4. L42G  -0.156 kcal/mol
5. S41E  -0.037 kcal/mol
6. S41G  -0.006 kcal/mol
7. T44V  0.057 kcal/mol
8. L42R  0.165 kcal/mol
9. S41R  0.201 kcal/mol
10. S41W  0.288 kcal/mol
11. S41D  0.362 kcal/mol
12. S41Y  0.369 kcal/mol
13. T44M  0.443 kcal/mol
14. S41Q  0.463 kcal/mol
15. L42K  0.463 kcal/mol
16. T44Y  0.599 kcal/mol
17. L42A  0.615 kcal/mol
18. S41T  0.669 kcal/mol
19. L42S  0.699 kcal/mol
20. L42N  0.819 kcal/mol
21. L42D  0.832 kcal/mol
22. T44G  0.839 kcal/mol
23. T44C  0.909 kcal/mol
24. F49E  0.945 kcal/mol
25. L42H  1.02 kcal/mol
26. K40N  1.04 kcal/mol
27. S41V  1.06 kcal/mol
28. L42W  1.06 kcal/mol
29. K40G  1.1 kcal/mol
30. T44D  1.14 kcal/mol
31. S41L  1.15 kcal/mol
32. F49D  1.19 kcal/mol
33. S41A  1.22 kcal/mol
34. T44Q  1.26 kcal/mol
35. S41I  1.28 kcal/mol
36. L42Q  1.32 kcal/mol
37. S41M  1.38 kcal/mol
38. L42T  1.47 kcal/mol
39. S41C  1.48 kcal/mol
40. F49A  1.48 kcal/mol
41. S41K  1.64 kcal/mol
42. K46W  1.73 kcal/mol
43. L42E  1.82 kcal/mol
44. L42V  1.88 kcal/mol
45. S41N  1.9 kcal/mol
46. K46T  1.95 kcal/mol
47. K46Y  2.02 kcal/mol
48. L42Y  2.14 kcal/mol
49. K46G  2.14 kcal/mol
50. K46V  2.21 kcal/mol
51. K46I  2.34 kcal/mol
52. K46D  2.47 kcal/mol
53. K46F  2.48 kcal/mol
54. K46S  2.48 kcal/mol
55. L42I  2.51 kcal/mol
56. K46H  2.64 kcal/mol
57. K40T  2.76 kcal/mol
58. K40S  2.8 kcal/mol
59. L42F  2.83 kcal/mol
60. K40E  2.86 kcal/mol
61. K46E  2.94 kcal/mol
62. S41H  2.95 kcal/mol
63. K40A  3 kcal/mol
64. K46N  3.02 kcal/mol
65. K46A  3.05 kcal/mol
66. T44S  3.08 kcal/mol
67. L42M  3.09 kcal/mol
68. K40W  3.24 kcal/mol
69. K46C  3.37 kcal/mol
70. K46M  3.47 kcal/mol
71. K46L  3.56 kcal/mol
72. K40F  3.63 kcal/mol
73. K46R  3.66 kcal/mol
74. K40C  3.71 kcal/mol
75. K40Y  3.79 kcal/mol
76. F49C  3.83 kcal/mol
77. K40L  3.84 kcal/mol
78. K40Q  3.88 kcal/mol
79. K40I  3.96 kcal/mol
80. K40M  4.1 kcal/mol
81. L42C  4.16 kcal/mol
82. K40V  4.24 kcal/mol
83. K40R  4.32 kcal/mol
